Positions count from the first letter of the chain named. In names and notes the source's numbering stands. Several values for one entry are separate records, joined by “and”; a condition that tells them apart may be missing. Identical values can stand only once.
Columns and labels:
[1] = target: T1, untagged human Fn14 extracellular domain (aa 28-75), SUMO-cleaved (human, UniProt Q9NP84 28-75); assay: co-crystal structure
T1 construct: Electron density seen for residues 32-68; also called Fn14 (crystallization)
Description: Purified Fn14 and His-tagged 41c Fab or R35B9 Fab proteins were mixed in a 1:1 stoichiometric ratio, concentrated to 1 mg/mL and then subjected to crystallization. Initial crystallization trials were performed in a 96-well format using a nano-liter dispensing liquid handling robot (Phoenix, Art Robbins Ltd.) while mixing 0.15 μL protein with 0.15 μL precipitant from different commercially available crystallization screens (JCSG core+and JCSG core 1 screens). Over 200 crystallization conditions were tested using the sitting drop vapor diffusion method and crystallization trails were carried out at both 4° C. and 22° C. Optimization of all crystallization conditions was performed manually by both hanging drop and sitting drop methods. Crystals were obtained in various conditions containing PEG 3350 or PEG 6000 as the common precipitant and were grown over 3 days. […]
The structure had good geometry with 4 residues (0.89%) as outliers and 97.6% residues in favored region of the Ramachandran plot. Correspondingly, the structure of Fn14 -R35B9-His Fab complex was determined by molecular replacement using the phase information obtained from Fn14-41c-His Fab complex and the structure was refined to 2.3 Å with residual factors R/Rfree=20.9/23.3.

[2] = target: T2, cynomolgus macaque Fn14-GST (cynomolgus macaque (Macaca fascicularis)); assay: SPR Biacore T200; cyno Fn14-GST captured by anti-GST, Fab analyte; 1:1 fit
T2 construct: Used from culture supernatant, captured by anti-GST; also called cyno Fn14-GST; CynoFn14
T2 sequence (chain, as listed by the source): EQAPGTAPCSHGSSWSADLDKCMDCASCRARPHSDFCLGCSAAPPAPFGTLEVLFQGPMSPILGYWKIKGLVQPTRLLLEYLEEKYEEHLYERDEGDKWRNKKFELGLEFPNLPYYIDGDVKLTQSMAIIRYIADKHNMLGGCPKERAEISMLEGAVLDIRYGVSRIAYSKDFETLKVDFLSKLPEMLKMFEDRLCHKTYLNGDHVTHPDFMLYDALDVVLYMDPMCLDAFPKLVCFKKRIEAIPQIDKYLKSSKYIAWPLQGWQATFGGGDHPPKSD
Description: (§1) In order to kinetically analyze the binding activity of anti-Fn14 mouse antibodies 41c, R35B9, and CRCBT-06-002 to recombinant human and cynomolgus macaque Fn14 proteins, the binding activity was measured by surface plasmon resonance method (SPR). Antibodies were generated as described herein. All of the following procedures were carried out using a Biacore T200 (GE Healthcare Bio-Sciences). To determine antibody affinity to human Fn14, recombinant human His-SUMO-Fn14 was immobilized on a CMS sensor chip (GE Healthcare Bio-Sciences) by amine coupling chemistry. In particular, the kinetic assay was carried out by immobilizing on the chip approximately 20-30 RU of recombinant protein, in order to achieve a low protein immobilization level. To determine antibody affinity to cynomolgus macaque Fn14, polyclonal anti-GST antibodies were immobilized on a CMS sensor chip (GE Healthcare Bio-Sciences) by amine coupling chemistry. In particular, after immobilizing approximately 1500 RU of anti-GST capture antibody onto the chip, cynomolgus macaque GST-Fn14 in culture supernatant was allowed to run for 5 minutes at a flow rate of 30 μL/min in order to achieve a low capture level of approximately 20 RU. Thereafter, antibody Fab fragments, serially diluted from a high concentration, were allowed to run at a flow rate of 30 μL/min onto the chip for 300 seconds. The dissociation time was 1800 seconds and the binding curves were measured at 25° C. Regeneration was performed with 10 mM glycine pH 1.5 for 30 seconds. The raw data were double referenced by subtraction of the signals from a reference flow cell without immobilized ligand and a buffer blank.
(§2) A sensorgram corresponding to each concentration was obtained (see FIG. 5). Analysis was carried out using a 1:1 Langmuir fit model using the analysis software attached to the apparatus, Biacore T200 Evaluation software (Biacore), thereby calculating an association rate constant ka [M-1s-1] and a dissociation rate constant kd [s-1] for the recombinant Fn14 proteins. […] Cross-reactivity of anti-Fn14 mouse antibodies to recombinant mouse GST-Fn14 protein was measured as described above.

[3] = target: T2, cynomolgus macaque Fn14-GST; assay: SPR Biacore T200; cyno Fn14-GST captured by anti-GST, Fab analyte; average of two runs
Description: (§3) In order to kinetically analyze the binding activity of anti-Fn14 mouse antibodies 41c, R35B9, and CRCBT-06-002 to recombinant human and cynomolgus macaque Fn14 proteins, the binding activity was measured by surface plasmon resonance method (SPR). Antibodies were generated as described herein. All of the following procedures were carried out using a Biacore T200 (GE Healthcare Bio-Sciences). To determine antibody affinity to human Fn14, recombinant human His-SUMO-Fn14 was immobilized on a CMS sensor chip (GE Healthcare Bio-Sciences) by amine coupling chemistry. In particular, the kinetic assay was carried out by immobilizing on the chip approximately 20-30 RU of recombinant protein, in order to achieve a low protein immobilization level. To determine antibody affinity to cynomolgus macaque Fn14, polyclonal anti-GST antibodies were immobilized on a CMS sensor chip (GE Healthcare Bio-Sciences) by amine coupling chemistry. […] The dissociation time was 1800 seconds and the binding curves were measured at 25° C. […]
(§4) A sensorgram corresponding to each concentration was obtained (see FIG. 5). […] Cross-reactivity of anti-Fn14 mouse antibodies to recombinant mouse GST-Fn14 protein was measured as described above.

mouse Fn14-GST = target: T3, mouse Fn14-GST (mouse); assay: SPR (Biacore T200); mouse Fn14-GST captured by immobilized anti-GST antibody, analyte at 10 nM
T3 construct: also called mouse GST-Fn14
Description: as §3, §4

[4] = target: T4, His-SUMO-huFn14 (soluble human Fn14 aa 28-75 with N-terminal 6xHis-SUMO tag) (human); assay: SPR Biacore T200; His-SUMO-huFn14 amine-coupled, Fab analyte; 1:1 fit
T4 construct: also called His-SUMO-Fn14; His-SUMO-hFn14
T4 sequence (chain, as listed by the source limits assumed): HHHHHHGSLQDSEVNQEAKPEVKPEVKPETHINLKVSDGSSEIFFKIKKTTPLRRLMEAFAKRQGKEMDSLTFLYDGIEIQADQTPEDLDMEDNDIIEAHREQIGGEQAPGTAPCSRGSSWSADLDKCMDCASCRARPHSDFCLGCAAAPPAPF
Description: as §1, §2

[5] = target: T4, His-SUMO-huFn14 (soluble human Fn14 aa …); assay: SPR Biacore T200; His-SUMO-huFn14 amine-coupled, Fab analyte; average of two runs
Description: as §3, §4

[6] = target: T5, human Fn14 Subdomain 2 peptide (AA51-70), biotinylated (human, added C-terminal Lys carries Ahx-biotin; C-terminal amide); assay: biolayer interferometry (ForteBio Octet); biotinylated peptide on streptavidin biosensor, response at 120 s of association
T5 peptide: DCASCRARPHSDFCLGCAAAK
Description: (§5) A ForteBio Octet Qke instrument (ForteBio) was used to measure the ability of purified antibodies to bind Fn14 peptides. The assays were performed at 30° C. in 96-well half area plates (Grenier, cat# 675076), with agitation set to 1000 rpm, in kinetic buffer (provided in the assay kit) to minimize nonspecific interactions. Biosensor tips were equilibrated in kinetic buffer for 600 s prior to use. Soluble biotinylated peptides (20 μg/ml, Subdomain 1 (AA30-50): […]-[K-Ahx-biotin]-amide (SEQ ID NO: 182) and Subdomain 2 (AA51-70): […]-[K-Ahx-biotin]-amide (SEQ ID NO: 183) synthesized by 21′ Century Biochemicals) in kinetic buffer were immobilized on streptavidin-coated biosensors (ForteBio, cat# 18-5020) for 300 seconds. […] Purified antibodies (20 μg/m1) were allowed to bind the immobilized peptides. Association was measured for 300 seconds, using the high sensitivity kinetics setting. To characterize the binding properties of the antibody candidates, the response (nm) at t =120 seconds from the start of the association step was recorded. All values were compared to a control sample (isotype antibody).

[7] = target: T6, human Fn14 Subdomain 1 peptide (AA30-50), biotinylated (human, added C-terminal Lys carries Ahx-biotin; C-terminal amide); assay: biolayer interferometry (ForteBio Octet); biotinylated peptide on streptavidin biosensor, antibody in solution, response at 120 s of association
T6 peptide: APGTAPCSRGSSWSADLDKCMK
Description: as §5

[8] = target: T7, human Fn14 (full length) on cells (human, UniProt Q9NP84 28-129); assay: cell-based or functional assay
T7 sequence: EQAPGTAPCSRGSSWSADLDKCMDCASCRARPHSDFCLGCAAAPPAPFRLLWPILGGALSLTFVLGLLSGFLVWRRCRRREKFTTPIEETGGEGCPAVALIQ

[9] = target: T8, mouse Fn14 (full length) on transfected 293F cells (mouse, UniProt Q9CR75 28-129); assay: flow cytometry, hybridoma supernatant on 293F cells transfected with mouse Fn14, detected with anti-mouse IgG PE
T8 sequence: T7 sequence with A7S, R11S, R29P, P47H, T62V, F63L, G66A, L68V, G70S, A97G
Description: FIG. 1 depicts binding of anti-Fn14 hybridoma supernatants to human and mouse Fn14 transfected cells. […] Hybridoma supernatant binding was detected using anti-mouse IgG PE.
Specifically, the binding activity of hybridoma culture supernatants or purified antibodies to Fn14-expressing cells was evaluated by flow cytometry (FCM). The cell lines evaluated by FCM were Fn14-transfected human embryonic kidney 293F cells (ThermoFisher, cat# R79007) and two cell lines endogenously expressing Fn14, human kidney-derived HK2 cells (ATCC, cat# CRL-2190) and rat kidney-derived NRK-52E cells (Japanese Collection of Research Bioresources Cell Bank (JCRB), cat# IF050480). For FCM analysis, Fn14-expressing cells were harvested using 0.25% trypsin-EDTA (Nacalai Tesque), washed with PBS, and resuspended in SM (Staining Medium: PBS containing 2% FBS, 1 mM EDTA, 0.05% sodium azide). Cells were then seeded in a 96-well plate at 1 ×10⁵ cells per well. Hybridoma supernatant or purified antibody (1 μg/mL final concentration) was added and the cells were incubated at 4° C. for 60 minutes. Cells were then washed with SM, resuspended in goat F(ab′)2 anti-mouse IgG-PE (Southern Biotech Inc.), diluted 1:500 in SM and incubated at 4° C. for 60 minutes. […] Fluorescence intensity was measured by FCM (BD Biosciences, FACS CantoII) and the data were analyzed using FlowJo software (Tomy Digital Biology Co., Ltd.).

[10] = target: T7, human Fn14 (full length) on cells; assay: flow cytometry on HK2 cells (endogenous human Fn14), purified antibody 1 µg/mL, detected with anti-mouse IgG PE
Description: (§6) Primary antibodies were used at a concentration of 1 μg/mL and binding was detected using anti-mouse IgG PE.
(§7) Specifically, the binding activity of hybridoma culture supernatants or purified antibodies to Fn14-expressing cells was evaluated by flow cytometry (FCM). The cell lines evaluated by FCM were Fn14-transfected human embryonic kidney 293F cells (ThermoFisher, cat# R79007) and two cell lines endogenously expressing Fn14, human kidney-derived HK2 cells (ATCC, cat# CRL-2190) and rat kidney-derived NRK-52E cells (Japanese Collection of Research Bioresources Cell Bank (JCRB), cat# IF050480). For FCM analysis, Fn14-expressing cells were harvested using 0.25% trypsin-EDTA (Nacalai Tesque), washed with PBS, and resuspended in SM (Staining Medium: PBS containing 2% FBS, 1 mM EDTA, 0.05% sodium azide). Cells were then seeded in a 96-well plate at 1 ×10⁵ cells per well. Hybridoma supernatant or purified antibody (1 μg/mL final concentration) was added and the cells were incubated at 4° C. for 60 minutes. Cells were then washed with SM, resuspended in goat F(ab′)2 anti-mouse IgG-PE (Southern Biotech Inc.), diluted 1:500 in SM and incubated at 4° C. for 60 minutes. Cells were washed with SM and finally resuspended in 50 μL of SM. Fluorescence intensity was measured by FCM (BD Biosciences, FACS CantoII) and the data were analyzed using FlowJo software (Tomy Digital Biology Co., Ltd.).

[11] = target: T9, rat Fn14, endogenous on NRK-52E cells (rat, UniProt Q9CR75 28-129 (mouse entry)); assay: flow cytometry on NRK-52E cells (endogenous rat Fn14), purified antibody 1 µg/mL, detected with anti-mouse IgG PE
T9 construct: Endogenous protein of rat kidney cells; also called NRK52E-A15/Luc cells
Description: as §6, §7

B1: 41c-His Fab (recombinant, bacterial, for crystallization) (Fab, V domains shown)
VH: EVQLQQSGPELVKPGASVKMSCKASGYTFTDYNMHWVKQSHGKSLEWIGYINPNNGGTNYNQKFKGKATLTVNKSSRSAYMEFRSLTSEDSAVYYCASSGWFTYWGQGTLVTVSA
VL: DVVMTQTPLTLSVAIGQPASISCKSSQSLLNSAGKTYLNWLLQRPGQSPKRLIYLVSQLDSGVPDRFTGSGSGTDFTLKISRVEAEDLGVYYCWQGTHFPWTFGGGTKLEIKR
notes: Two extra N-terminal residues on each chain (Leu-Glu heavy, Ser-Arg light); C-terminal linker and 6xHis on the heavy chain; also called His-tagged 41c Fab
binding result [1]: binds

B2: 41c Fab (enzymatic digest of the mouse IgG1 antibody) (Fab, V domains shown, not shown: a dimerising Fc or GST)
VH: B1 VH
VL: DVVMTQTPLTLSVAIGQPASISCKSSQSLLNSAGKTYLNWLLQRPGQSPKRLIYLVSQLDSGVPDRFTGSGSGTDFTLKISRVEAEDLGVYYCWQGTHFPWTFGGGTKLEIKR
notes: Made with the mouse IgG1 Fab and F(ab')2 preparation kit; also called 41C Fab LM101416
Kd [2]: 3.48 nM and 3.28 nM
koff [2]: 0.00153 s⁻¹ and 0.00223 s⁻¹
kon [2]: 441000 M⁻¹ s⁻¹ and 678000 M⁻¹ s⁻¹
Kd [3]: 3.38 nM
binding result (mouse Fn14-GST): binds
Kd [4]: 2.15 nM and 1.81 nM
koff [4]: 0.00242 s⁻¹ and 0.00266 s⁻¹
kon [4]: 1.13e+06 M⁻¹ s⁻¹ and 1.47e+06 M⁻¹ s⁻¹
Kd [5]: 1.98 nM

B3: R35B9 mouse IgG1(D265A), kappa antibody (A402/A403) (antibody)
heavy: EVQLQQSGPELVKPGASVKMSCKASGYIFQDYNMHWVKQSHGKSLEWIGSINPRNGWTNYNQKFKGKATLTVNKSSRSAYMEFRSLTSEDSAVYYCASSGWFTYWGQGTLVTVSAAKTTPPSVYPLAPGSAAQTNSMVTLGCLVKGYFPEPVTVTWNSGSLSSGVHTFPAVLESDLYTLSSSVTVPSSPRPSETVTCNVAHPASSTKVDKKIVPRDCGCKPCICTVPEVSSVFIFPPKPKDVLTITLTPKVTCVVVAISKDDPEVQFSWFVDDVEVHTAQTQPREEQFNSTFRSVSELPIMHQDWLNGKEFKCRVNSAAFPAPIEKTISKTKGRPKAPQVYTIPPPKEQMAKDKVSLTCMITDFFPEDITVEWQWNGQPAENYKNTQPIMNTNGSYFVYSKLNVQKSNWEAGNTFTCSVLHEGLHNHHTEKSLSHSPGK
light: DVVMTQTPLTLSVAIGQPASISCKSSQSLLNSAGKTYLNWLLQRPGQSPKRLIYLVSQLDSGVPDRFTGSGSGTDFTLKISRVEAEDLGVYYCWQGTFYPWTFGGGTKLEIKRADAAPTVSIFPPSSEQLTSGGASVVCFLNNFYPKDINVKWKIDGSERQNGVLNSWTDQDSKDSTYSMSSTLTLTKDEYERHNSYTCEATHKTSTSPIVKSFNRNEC
binding result [6]: no binding (tested: 20 µg/mL)
binding result [7]: binds
ICAM-1 MFI on HRMC, 250 ng/mL rhTWEAK, mAb 0.1 µg/mL [8]: 5830 MFI

B4: KO42d mouse monoclonal antibody (hybridoma-derived) (antibody, V domains shown)
VH: EVQLLQSGPELVKPVASVKMSCKASGYTFTDYNIHWVKQSHGKSLEWIGYINPNNGVTGYNQKFRGKATLTVNRSSNTAYMDLRSLTSEDSAVYYCTRRYGDYVHAMDCWGQGTSVTVSS
VL: DIQMTQSPSSLSASLGERVSLTCRASQDIGSRLNWLQQEPDGTIKRLIYATSSLDSGVPKRFSGSRSGSDYSLTISSLESEDFVDYYCLQYASSPYTFGGGTKLEIK
notes: Hybridoma supernatant or purified antibody from an Fn14 knockout mouse; native mouse IgG, kappa
binding result [9]: binds
binding result [10]: binds
binding result [11]: binds

Reference: US20220289857A1 (Kyowa Kirin, published 2022)
